The values that follow come from PMC10143822, “Structural Adaptation of the Single-Stranded DNA-Binding Protein C-Terminal to DNA Metabolizing Partners Guides Inhibitor Design” (Pharmaceutics, 2023).

Where a SMILES comes first, the peptide text is derived from it. Primed or numbered codes have the meaning given here. Where no end group is shown, it is not given here. [ ]: non-standard residue; d: D form. 5,6‑carboxyfluorescein = 5,6-carboxyfluorescein; Phe(4-CF3) = N[C@@H](Cc1ccc(C(F)(F)F)cc1)C(=O)O; Phe(3-Cl) = N[C@@H](Cc1cccc(Cl)c1)C(=O)O; Phe(4-Cl) = N[C@@H](Cc1ccc(Cl)cc1)C(=O)O; NMeF = CN[C@@H](Cc1ccccc1)C(=O)O; NMeD = CN[C@@H](CC(=O)O)C(=O)O; Pip′ = not defined here

For one test, the target named is T1, RecO (Escherichia coli, UniProt P0A7H3).
T1 construct: His-tag (TEV site) (N, cleaved yes); made in house; host or cells: E. coli Rosetta cells
In words: biochemical. In kind it is binding. The following applies: 0.5 μM RecO, 50 nM F-wtSSB tracer, 0–500 μM unlabeled peptide, 30 min room temperature; 20 mM Tris-HCl pH 8.0, 200 mM NaCl, 10% glycerol, 0.01% Triton-X 100; 25 °C; triplicate; read-out: IC50 on RecO, competitive fluorescence anisotropy. The protocol:
(§1) Triplicate measurements were performed using a Clariostar Plus Microplate Reader in 384-well plates for all fluorescence anisotropy (FA) experiments. The settings were 25 °C, excitation at 485 nm, emission at 510 nm, settling time of 0.2 s, and 200 flashes per well.
(§2) Competition fluorescence anisotropy experiments were carried out as follows: protein (0.5 μM either ExoI or RecO) was incubated with 50 nM F-wtSSB peptide and 0–500 μM unlabeled wtSSB (or a variant) peptide for 30 min at room temperature. For direct fluorescence anisotropy measurements, 16 µM ExoI and 7.5 µM RecO were used in the first well. After serial dilution, either 50 nM of F-mSSB or F-sSSB was added to the wells and then incubated for 30 min. Buffers used included 20 mM Tris-HCl (pH 8.0), 100 mM NaCl, 1 mM MgCl2, 1 mM 2-mercaptoethanol, 10% (v/v) glycerol, for ExoI and 20 mM Tris-HCl (pH 8.0), 200 mM NaCl, 1 mM 2-mercaptoethanol, 10% (v/v) glycerol, and 0.01% Triton-X 100 for RecO [37].
(§3) Fluorescence anisotropy values were normalized and are shown as bound fractions (BF, %). BF=r−rmin/λ(rmax−r)+r−rmin, I=2∗PG+S, r=S−PG/I, where r: anisotropy, I: total intensity, P: perpendicular intensity, S: parallel intensity, G: an instrument factor set to 1, BF: ligand fraction bound, and λ=λbound/λunbound=1 .
(§4) Competitive fluorescence anisotropy was analyzed in Origin Pro 9.5, and IC50 values were determined using the Logistic Nonlinear fit function and are shown as plots for each mutated position for each protein in Figures S4 and S6. EC50 values from direct fluorescence anisotropy titrations were plotted in Origin 9.5. Values were determined using the Logistics Nonlinear fit function.

A further test has as its target T2, ExoI (Escherichia coli, UniProt P04995).
T2 construct: His-tag (cleaved yes); host or cells: E. coli BL21 (DE3) pLysS
The test can be described thus: biochemical. In kind it is binding, E. coli. The protocol:
as §1, §2, §3, §4

In test [1] the target is T3, E. coli Exonuclease I (E. coli, UniProt P04995 1-471).
T3 construct: Exonuclease I of E. coli, from plasmid pET14b-E. coli Exonuclease I (Addgene 104552); The His tag was cut off with thrombin only for the purified protein; also called ExoI; Exol; source: E. coli BL21 (DE3) pLysS, purified (Ni-NTA, heparin); also in cell lysate (pull-down)
T3 sequence: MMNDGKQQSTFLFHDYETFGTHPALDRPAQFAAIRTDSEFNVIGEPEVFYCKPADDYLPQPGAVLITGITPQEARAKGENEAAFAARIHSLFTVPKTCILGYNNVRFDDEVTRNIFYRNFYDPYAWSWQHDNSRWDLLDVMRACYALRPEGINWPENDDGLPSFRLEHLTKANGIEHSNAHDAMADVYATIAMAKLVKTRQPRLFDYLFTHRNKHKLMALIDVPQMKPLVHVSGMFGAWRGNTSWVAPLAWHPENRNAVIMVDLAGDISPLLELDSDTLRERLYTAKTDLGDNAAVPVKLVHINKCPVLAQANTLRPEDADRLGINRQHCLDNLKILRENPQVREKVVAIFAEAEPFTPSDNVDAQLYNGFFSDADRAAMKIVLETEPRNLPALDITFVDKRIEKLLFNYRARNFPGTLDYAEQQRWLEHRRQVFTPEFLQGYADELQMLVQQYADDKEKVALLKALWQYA
The test can be described thus: fluorescence polarisation; direct fluorescence anisotropy: ExoI serially diluted from 16 µM, 50 nM fluorescein-labelled peptide, 30 min, 25 °C; 20 mM Tris-HCl pH 8.0, 100 mM NaCl, 1 mM MgCl2, 1 mM 2-mercaptoethanol, 10% glycerol. As to conditions: both partners purified. In general terms: Polarisation of emitted light reports the rotation of a fluorescent probe.

Test [2] has as its target T3, E. coli Exonuclease I. In words: ITC; peptide in the syringe titrated into ExoI in the cell; 20 mM Tris–HCl pH 8.0, 100 mM NaCl, 1 mM MgCl2, 4% glycerol, 1 mM β-mercaptoethanol; model A + B = C, stoichiometry fixed to 1:1, incompetent fraction fitted. As to conditions: both partners purified. In general terms: ITC needs no label: the signal is the heat of the interaction.

The next test concerns the target T4, Escherichia coli RecO (Escherichia coli, UniProt P0A7H3 1-242).
T4 construct: RecO of Escherichia coli, synthetic gene in pET28a+ with a TEV site at the 5' end; The His tag was cut off with TEV protease only for the purified protein; source: E. coli Rosetta, purified (Ni-NTA, heparin); also in cell lysate (pull-down); not shown: His tag, N-terminal, cleaved
T4 sequence: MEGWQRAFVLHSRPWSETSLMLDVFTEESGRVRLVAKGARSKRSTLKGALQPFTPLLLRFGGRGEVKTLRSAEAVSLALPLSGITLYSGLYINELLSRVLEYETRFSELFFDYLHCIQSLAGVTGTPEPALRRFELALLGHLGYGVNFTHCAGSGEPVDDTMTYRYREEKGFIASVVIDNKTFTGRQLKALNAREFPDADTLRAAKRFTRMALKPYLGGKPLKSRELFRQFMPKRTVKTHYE
The test can be described thus: ITC; peptide in the syringe titrated into RecO in the cell; 50 mM HEPES pH 7.5, 50 mM NaCl, 25% glycerol, 1 mM TCEP; model A + B = C, stoichiometry fixed to 1:1, incompetent fraction fitted. The following applies: both partners purified.

T2 sequence (P04995 whole entry): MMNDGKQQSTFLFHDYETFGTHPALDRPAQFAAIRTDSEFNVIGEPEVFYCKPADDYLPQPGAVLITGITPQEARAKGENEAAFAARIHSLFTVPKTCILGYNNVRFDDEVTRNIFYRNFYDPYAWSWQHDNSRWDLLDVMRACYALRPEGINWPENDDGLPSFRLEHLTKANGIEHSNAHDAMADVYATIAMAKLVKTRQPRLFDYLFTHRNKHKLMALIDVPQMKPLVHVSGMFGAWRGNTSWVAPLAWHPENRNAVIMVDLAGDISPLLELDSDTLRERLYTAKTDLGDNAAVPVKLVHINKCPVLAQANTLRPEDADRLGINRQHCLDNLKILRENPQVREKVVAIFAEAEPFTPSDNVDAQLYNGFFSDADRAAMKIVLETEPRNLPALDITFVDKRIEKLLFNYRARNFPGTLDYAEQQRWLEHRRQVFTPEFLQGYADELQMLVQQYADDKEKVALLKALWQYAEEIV

What is called IC50 is the concentration at which inhibition is half-maximal. Regarding `CC[C@H](C)[C@H](NC(=O)[C@H](CC(=O)O)NC(=O)[C@H](CC(=O)O)NC(=O)[C@H](CC(=O)O)NC(=O)[C@H](Cc1ccccc1)N(C)C(=O)[C@H](CC(=O)O)NC(C)=O)C(=O)N1CCC[C@H]1C(=O)N[C@@H](Cc1ccccc1)C(=O)O` [NM-Phe2] (Ac-D[NMeF]DDDIPF-OH), the IC50 at RecO worked out at 3330 ± 350 nM; against ExoI, 5370 ± 530 nM.

Consider `CC[C@H](C)[C@H](NC(=O)[C@H](CC(=O)O)NC(=O)[C@H](CC(=O)O)N(C)C(=O)[C@H](CC(=O)O)NC(=O)[C@H](Cc1ccccc1)NC(=O)[C@H](CC(=O)O)NC(C)=O)C(=O)N1CCC[C@H]1C(=O)N[C@@H](Cc1ccccc1)C(=O)O` [NM-Asp4] (Ac-DFD[NMeD]DIPF-OH), for which the values for the IC50 at RecO and at ExoI were 3850 ± 1030 nM and 1270 ± 140 nM, respectively. For `CC[C@H](C)[C@H](NC(=O)[C@H](CC(=O)O)NC(=O)[C@H](CC(=O)O)NC(=O)[C@H](CC(=O)O)NC(=O)[C@H](Cc1ccccc1)NC(=O)[C@@H](CC(=O)O)NC(C)=O)C(=O)N1CCC[C@H]1C(=O)N[C@@H](Cc1ccccc1)C(=O)O` [D-Asp1] (Ac-[dD]FDDDIPF-OH) the same measures were 6560 ± 1400 nM and 5550 ± 190 nM. For `CC[C@H](C)[C@H](NC(=O)[C@H](CC(=O)O)NC(=O)[C@H](CC(=O)O)NC(=O)[C@@H](CC(=O)O)NC(=O)[C@H](Cc1ccccc1)NC(=O)[C@H](CC(=O)O)NC(C)=O)C(=O)N1CCC[C@H]1C(=O)N[C@@H](Cc1ccccc1)C(=O)O` [D-Asp3] (Ac-DF[dD]DDIPF-OH) the same measures were 4560 ± 1530 nM and 6820 ± 530 nM.

B1: F-4CF3-Phe8 (fluorescein-labelled single mutant) (peptide)
peptide: {5,6‑carboxyfluorescein}-GGDFDDDIP[Phe(4-CF3)]
notes: two glycines between the 5,6-carboxyfluorescein and the peptide; E. coli SSB-Ct, residues 171-178; F at position 8 stands for 4-CF3-Phe; numbers count on: the octapeptide (position 1 = SSB residue 171); One of Compounds 54-62 of the Supplementary Material; also called F-mSSB 4CF3-Phe8; source: synthetic peptide
As a reminder, the EC50 is the concentration that produces a half-maximal response. A low value points to a more potent agent. Consider B1, for which the EC50 with E. coli Exonuclease I [1] is 90 ± 10 nM.

B2: F-Leu6 (fluorescein-labelled single mutant) (peptide)
peptide: {5,6‑carboxyfluorescein}-GGDFDDDLPF
notes: two glycines between the 5,6-carboxyfluorescein and the peptide; E. coli SSB-Ct, residues 171-178; numbers count on: the octapeptide (position 1 = SSB residue 171); One of Compounds 54-62 of the Supplementary Material; also called F-mSSB Leu6; source: synthetic peptide
Molecule B2 returned an EC50 with E. coli Exonuclease I [1] of 200 ± 30 nM.

B3: F-4Cl-Phe2 (fluorescein-labelled single mutant) (peptide)
peptide: {5,6‑carboxyfluorescein}-GGD[Phe(4-Cl)]DDDIPF
notes: two glycines between the 5,6-carboxyfluorescein and the peptide; E. coli SSB-Ct, residues 171-178; F at position 2 stands for 4-Cl-Phe; numbers count on: the octapeptide (position 1 = SSB residue 171); One of Compounds 54-62 of the Supplementary Material; also called F-mSSB 4Cl-Phe2; source: synthetic peptide
The molecule B3 yielded an EC50 in the test with E. coli Exonuclease I [1] of 150 ± 20 nM.

B4: F-4CF3-Phe2 (fluorescein-labelled single mutant) (peptide)
peptide: {5,6‑carboxyfluorescein}-GGD[Phe(4-CF3)]DDDIPF
notes: two glycines between the 5,6-carboxyfluorescein and the peptide; E. coli SSB-Ct, residues 171-178; F at position 2 stands for 4-CF3-Phe; numbers count on: the octapeptide (position 1 = SSB residue 171); One of Compounds 54-62 of the Supplementary Material; also called F-mSSB 4CF3-Phe2; source: synthetic peptide
In turn, B4 registered an EC50 in the test with E. coli Exonuclease I [1] of 40 ± 2 nM. Take {5,6‑carboxyfluorescein}-DFDDDI[Pip′]F (not fully specified) [F-Pip7 (fluorescein-labelled single mutant)]: the EC50 in the test with E. coli Exonuclease I [1] was 90 ± 10 nM.

B5: E2-sSSB-Ct (Asp–4-CF3-Phe–Asp–Asp–Asp–Ile–Pro–4-CF3-Phe) (peptide)
peptide: Ac-D[Phe(4-CF3)]DDDIP[Phe(4-CF3)]
notes: SSB-Ct of E. coli SSB (residues 171-178), printed in three-letter code; F2 and F8 stand for 4-CF3-Phe; numbers count on: the octapeptide (position 1 = SSB residue 171); also called E2.SSB-Ct; source: synthetic peptide
A word on the stoichiometry N: it is the number of molecules, sites or subunits per partner or assembly. Consider B5, for which, in the test with E. coli Exonuclease I [2], the dH is -13.4 kcal/mol and the “stoichiometry N” value is 0.885.

B6: R1-sSSB-Ct (Asp–4Cl-Phe–NM-Asp–Asp–Glu–Leu–Pro–3Cl-Phe) (peptide)
peptide: Ac-D[Phe(4-Cl)][NMeD]DELP[Phe(3-Cl)]
notes: SSB-Ct of E. coli SSB (residues 171-178) with combined modifications, printed in three-letter code; F2 stands for 4Cl-Phe, D3 for NM-Asp, F8 for 3Cl-Phe; numbers count on: the octapeptide (position 1 = SSB residue 171); source: synthetic peptide
Usually Kd stands for the constant that tells how readily two partners part at equilibrium. B6: in the test with Escherichia coli RecO, the Kd turned out to be 130 nM, the dH was -6.79 kcal/mol and the “stoichiometry N” value worked out at 0.935.
